Laboratory results taken from article PMC5570134.

Biological target: FUS RRM (UniProt P35637 267-373)
Assay: EMSA

FUS RRM, sequence (P35637 267-373): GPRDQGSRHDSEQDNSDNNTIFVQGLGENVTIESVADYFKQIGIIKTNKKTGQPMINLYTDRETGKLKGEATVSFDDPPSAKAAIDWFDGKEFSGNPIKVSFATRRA

Row | Binder | Kd [µM]
1 | GCUGCGGUGUGGAAGGAGUGGCUGGGUUGCGCAGG (structured_RNA) [Sc1] | 48 ± 3
2 | AAAAAAAAAAAAAAAAAAAAAAAAAAAAAAAAAAAAAAAA (ssRNA) [Poly-A] | 45 ± 2
